According to paper PMC9798971, “Alarming and Calming: Opposing Roles of S100A8/S100A9 Dimers and Tetramers on Monocytes” (Advanced Science, 2022):

Experiments:
[1] = biological target: T1, S100A8/S100A9-tetramer (murine) (murine, UniProt P27005 1-89; P31725 1-113); test: ELISA
T1 chain 1: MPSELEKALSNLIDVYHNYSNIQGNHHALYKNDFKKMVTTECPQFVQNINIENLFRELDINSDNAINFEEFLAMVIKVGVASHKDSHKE
T1 chain 2: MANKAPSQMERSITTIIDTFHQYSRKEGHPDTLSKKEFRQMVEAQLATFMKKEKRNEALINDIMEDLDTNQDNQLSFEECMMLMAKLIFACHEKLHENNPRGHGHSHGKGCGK

murine S100A9 = biological target: T2, murine S100A9 (murine, UniProt P31725 1-113); test: reconstitution by refolding together, anion exchange chromatography; equal amounts of the two purified proteins mixed with 1 mM DTT, denatured at pH 2, renatured by stepwise increase of pH to 7.4; residual homodimers separated by anion exchange chromatography; conditions: both partners purified
T2 construct: S100A9 (MRP14), murine; also called MRP14
T2 sequence (looked up): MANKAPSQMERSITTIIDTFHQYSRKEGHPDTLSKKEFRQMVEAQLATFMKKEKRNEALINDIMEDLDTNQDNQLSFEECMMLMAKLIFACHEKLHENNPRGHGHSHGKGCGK

murine S100A9-N70A = biological target: T3, murine S100A9-N70A (murine, UniProt P31725 1-113, N70A); test: as above; conditions: both partners purified
T3 sequence (looked up): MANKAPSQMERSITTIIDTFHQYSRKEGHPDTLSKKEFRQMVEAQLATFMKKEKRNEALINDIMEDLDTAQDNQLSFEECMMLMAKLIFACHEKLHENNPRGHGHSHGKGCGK

B1: recombinant mouse CD69, His-tagged extracellular domain (domain or fragment)
chain: NVGKYNCPGLYEKLESSDHHVATCKNEWISYKRTCYFFSTTTKSWALAQRSCSEDAATLAVIDSEKDMTFLKRYSGELEHWIGLKNEANQTWKWANGKEFNSWFNLTGSGRCVSVNHKNVTAVDCEANFHWVCSKPSR
A Kd [1] of 5.06 nM was found for B1 in this work.

B2: murine S100A8 (natural protein, UniProt P27005 1-89, looked up)
chain: MPSELEKALSNLIDVYHNYSNIQGNHHALYKNDFKKMVTTECPQFVQNINIENLFRELDINSDNAINFEEFLAMVIKVGVASHKDSHKE
notes: S100A8 (MRP8), murine; also called MRP8
B2: binds (murine S100A9); binds (murine S100A9-N70A).
